These results are taken from US20220281980A1.

Experiment [1] has as its target human MICA/B endogenously expressed on A2058 cells (MICA alleles *008/*018) (human) (UniProt Q29983). Briefly: flow cytometry, tumor cells with endogenous MICA/B.
For experiment [2], the target named is overexpressed cyno MICA/B (CHO clones #4 and #6). In words: Scatchard analysis, 125I-MICA.36 on transduced CHO cells.
The target in experiment [3] is overexpressed human MICA*008 and MICB*005 on CHO cells. The description is as above.

Values joined by “and” are separate entries in the source; they are usually repeats but may differ in a detail not shown here. Identical values can stand only once.

B1: 19G6 (antibody, V domains shown)
VH: QVQLVESGGGVVQPGRSLRLSCAASGFTFSNYAMHWVRQAPGEGLEWVALIWYDGSNKFYGDSVKGRFTISRDNSKNTLYLQMNSLSAEDTAVYYCAREGSGHYWGQGTLVTVSS
VL: AIQLTQSPSSLSASVGDRVTITCRASQGISSALAWYQQKPGKVPKSLIYDASSLESGVPSRFSGSGSGTDFTLTISSLQPEDFATYYCQQFNSYPITFGQGTRLEIK
Consider B1, for which, in experiment [1], the EC50 (as a rule, the concentration that produces a half-maximal response) came out at 5.39 nM.

B2: 16A5 (antibody, V domains shown)
VH: QVQLVESGGDVVQPGRSLRLSCAASGFTFSNYNIHWVRQAPGKGLEWVAVIRYDGINKYYADSVKGRFIISRDNSKNTLYLQMNSLRAEDTAVYYCASGPPDAFNIWGQGTMVTVSS
VL: B1 VL
Take B2: in experiment [1], the EC50 is 7.68 nM and 10.9 nM.

B3: MICA.36 (antibody, V domains shown)
VH: B1 VH
VL: B1 VL
Turning to B3, the Kd (commonly the free concentration of one partner at which half of the binding sites on the other are occupied at equilibrium, for simple one-to-one binding) in experiment [2] lay within 5 to 11 nM; in experiment [3] it was 1 to 2 nM.
